The chains are these.
B11: LRP2 CR89 (receptor)
chain: not shown
notes: domain: CR8 and CR9; also called YVWR; L2 CR89; not shown: N-terminal hexahistidine and S-peptide from pET30(+)a

In one experiment the target is T1, LRP1 CR3-5 (human).
T1 construct: range 852-973; Amplified from human cDNA; also called L1 CR3-5
In words: solid-phase assay, coated CR protein, anti-RAP, OD450. The protocol: (§1) Percent of maximum binding is the ratio of the OD at the highest concentration tested for each ligand and the highest OD measured for all such ligands at that concentration.
(§2) Solid phase binding assays-Purified, refolded CR protein (1 μg) was bound to Nunc Maxisorp™ 96-well plates in TBS pH 8 supplemented with 5 mM CaCl₂ (TBSC) overnight at 4° C. Wells were washed with TBSC and then blocked with TBSC containing 2% bovine serum albumin (BSA). RAP ligands were then incubated with the immobilized receptor at a range of concentrations for 2 hours in the above blocking buffer supplemented with 0.05% Tween-20 at room temperature. Control wells contained no added ligand. As an additional control, to determine whether the absence of calcium affected binding, 10 mM EGTA was included in the incubation medium for some samples. Wells were washed with TBSTC and bound ligands detected with polyclonal anti-RAP (BP41/42, 1:1,000, BioMarin). Excess primary antibody was removed and wells washed before incubation with the secondary antibody, HRP-conjugated goat anti rabbit IgG (Bio-Rad). After washing, TMB substrate solutions (Bio-Rad) were added to detect HRP. Color development was stopped with 1N HCl. Absorption at 450 nm was measured with a microplate spectrophotometer (Molecular Devices). Data were plotted and Kd values derived by non-linear regression with the assumption of single-site binding (GraphPad Prism).
(§3) Next, binding of RAP d3 and RAPv2A d3 proteins to LRP1 CR3-5 and LRP2 CR89 was assessed. In order to understand the relative contributions of each RAPv2A d3 mutation to differences in affinity, we also prepared a number of RAPv2A d3 revertants and RAP d3 forward mutants, all comprising sequence variants intermediate between RAPv2A d3 and wild-type RAP d3 (FIGS. 7A and B, Table 1). Samples were tested in triplicate and experiments were repeated at least once. Values from different experiments were combined and a single mean and standard deviation obtained for each concentration of ligand tested.

In experiment [1] the target is B11. The description is as above. The protocol:
as §1, §2, §3

The target in experiment [2] is B11. Nature of the experiment: solid-phase binding assay: CR protein coated on the plate, ligand titrated, anti-RAP polyclonal and HRP secondary, OD 450 nm. The method, then: as §2
as §3, with “tested. OD values from uncoated wells, receptor-coated wells incubated with buffer alone, and uncoated wells incubated with the highest ligand concentration all gave similar values for all conditions tested. All OD values were corrected by subtracting the OD obtained from uncoated wells.” for “tested.”

Experiment [3] concerns the target T2, RAP-IDU (fusion of RAP and human α-L-iduronidase) (human, UniProt P35475 28-653, limits assumed).
T2 construct: iduronidase served as reporter
T2 sequence: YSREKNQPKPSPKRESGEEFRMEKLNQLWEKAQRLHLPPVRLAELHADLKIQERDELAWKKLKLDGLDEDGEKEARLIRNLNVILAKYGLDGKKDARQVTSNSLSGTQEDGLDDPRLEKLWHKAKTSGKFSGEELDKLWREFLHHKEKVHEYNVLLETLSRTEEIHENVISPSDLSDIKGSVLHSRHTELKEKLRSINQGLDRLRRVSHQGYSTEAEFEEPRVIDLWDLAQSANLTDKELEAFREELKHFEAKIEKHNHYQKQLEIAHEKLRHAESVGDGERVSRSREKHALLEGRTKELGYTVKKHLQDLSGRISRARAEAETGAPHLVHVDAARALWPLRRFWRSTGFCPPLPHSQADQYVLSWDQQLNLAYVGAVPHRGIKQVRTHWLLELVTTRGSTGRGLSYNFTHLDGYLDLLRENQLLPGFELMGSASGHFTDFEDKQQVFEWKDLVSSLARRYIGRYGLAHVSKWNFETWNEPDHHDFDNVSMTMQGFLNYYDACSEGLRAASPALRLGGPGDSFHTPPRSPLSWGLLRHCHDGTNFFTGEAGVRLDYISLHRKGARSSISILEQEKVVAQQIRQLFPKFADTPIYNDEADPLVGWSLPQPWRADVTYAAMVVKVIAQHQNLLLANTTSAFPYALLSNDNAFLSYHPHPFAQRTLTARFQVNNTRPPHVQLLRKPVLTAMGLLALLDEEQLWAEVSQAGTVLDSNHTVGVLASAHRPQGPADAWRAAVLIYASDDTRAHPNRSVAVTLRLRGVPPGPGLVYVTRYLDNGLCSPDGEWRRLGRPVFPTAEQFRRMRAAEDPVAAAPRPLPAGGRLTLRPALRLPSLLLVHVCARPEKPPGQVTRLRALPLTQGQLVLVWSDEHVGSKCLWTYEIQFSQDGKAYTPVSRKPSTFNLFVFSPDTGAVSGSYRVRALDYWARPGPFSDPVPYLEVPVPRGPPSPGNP
In words: solid-phase assay: CR protein coated on the plate, RAP-IDU titrated, bound iduronidase activity read as rfu. The method, then:
Initially, the binding of wild-type RAP to each CR pair or triplet was measured by solid-phase assay. Purified, refolded CR proteins were bound to Maxisorp plates during overnight incubation at 4° C. CR-loaded wells were blocked by resuspending in TBS Superblock (Pierce) supplemented with 5 mM CaCl2 (blocking buffer) and incubating for 1 hour at room temperature. Blocking buffer was removed and wells were washed once in TBS supplemented with 5 mM CaCl2 and 0.05% Tween-20 (wash buffer). Washed wells were incubated with 10 nM purified RAP-IDU (Tanimoto, et al., (2005) Br J Cancer 92, 278-283) for 2 hours at room temperature in blocking buffer. […] Wells were washed four times with wash buffer and resuspended in acidic PBS pH 5.6 supplemented with 200 μg/mL BSA (assay buffer). Iduronidase activity was measured as described previously using the fluorescent substrate 4-MU-α-L-iduronide (Tanimoto, et al., (2005) Br J Cancer 92, 278-283). No binding of RAP-IDU to empty wells was measured. […] RAP bound more weakly to other CR proteins, with dissociation constants from 30 to over 1000 nM.

The source of these data is US20090269346A1 (RAPTOR PHARMACEUTICAL, published 2009).

Where only a bound is given, the exact number is not on record here.

Sequence of LRP2 CR89 (P98164 1025-1102): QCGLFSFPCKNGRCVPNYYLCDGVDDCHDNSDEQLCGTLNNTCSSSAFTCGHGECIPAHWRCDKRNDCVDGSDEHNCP
T1 sequence (Q07954 852-973): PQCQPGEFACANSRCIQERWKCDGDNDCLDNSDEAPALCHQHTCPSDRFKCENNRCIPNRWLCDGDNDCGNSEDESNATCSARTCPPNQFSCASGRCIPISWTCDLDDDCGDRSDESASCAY

B1: RAP d3 E217K (ligand)
chain: LDRLRRVSHQGYSTEAKFEEPRVIDLWDLEQSANLTDKELEAFREELKHFEAKIEKHNHYQKQLEIAHEKLRHAESVGDGERVSRSREKHALLEGRTKELGYTVKKHLQDLSGRISRAR
notes: forward mutant of wild-type RAP d3; also called RAP E217K; not shown: vector-encoded N-terminal tags of pET30(+)a
Usually Kd stands for the constant that tells how readily two partners part at equilibrium. B1: in the experiment with LRP1 CR3-5, the “% max (percent of maximum binding)” value came to 91% and binding was characterised by a dissociation constant (Kd) of 9 nM. In addition, in the experiment with LRP2 CR89 [1], the “% max (percent of maximum binding)” value worked out at 5%. In addition, the binding result with LRP2 CR89 [2] was “no binding (tested: 100 nM)”.

B2: RAP d3 E251K, K270E (ligand)
chain: LDRLRRVSHQGYSTEAEFEEPRVIDLWDLEQSANLTDKELEAFREELKHFKAKIEKHNHYQKQLEIAHEELRHAESVGDGERVSRSREKHALLEGRTKELGYTVKKHLQDLSGRISRAR
notes: forward mutant of wild-type RAP d3; also called RAP E251K, K270E; not shown: vector-encoded N-terminal tags of pET30(+)a
As for B2, the “% max (percent of maximum binding)” value in the experiment with LRP1 CR3-5 was 4%; with LRP2 CR89 [1], 2%. For the same molecule, the binding result with LRP2 CR89 [2] is “no binding (tested: 100 nM)”.

B3: RAP d3 E251K, K256A, K270E (ligand)
chain: LDRLRRVSHQGYSTEAEFEEPRVIDLWDLEQSANLTDKELEAFREELKHFKAKIEAHNHYQKQLEIAHEELRHAESVGDGERVSRSREKHALLEGRTKELGYTVKKHLQDLSGRISRAR
notes: forward mutant of wild-type RAP d3; also called RAP E251K, K256A, K270E; not shown: vector-encoded N-terminal tags of pET30(+)a
For B3, the “% max (percent of maximum binding)” value in the experiment with LRP1 CR3-5 is 2%. Also, in the experiment with LRP2 CR89 [1], the “% max (percent of maximum binding)” value was 40% and the Kd came out at 114 nM.

B4: RAP d3 K270E (ligand)
chain: LDRLRRVSHQGYSTEAEFEEPRVIDLWDLEQSANLTDKELEAFREELKHFEAKIEKHNHYQKQLEIAHEELRHAESVGDGERVSRSREKHALLEGRTKELGYTVKKHLQDLSGRISRAR
notes: forward mutant of wild-type RAP d3; also called RAP K270E; not shown: vector-encoded N-terminal tags of pET30(+)a
Take B4: the “% max (percent of maximum binding)” value with LRP1 CR3-5 worked out at 4%; with LRP2 CR89 [1] it was 2%. In addition, the binding result with LRP2 CR89 [2] was “no binding (tested: 100 nM)”.

B5: RAP d3 H249Y (ligand)
chain: LDRLRRVSHQGYSTEAEFEEPRVIDLWDLEQSANLTDKELEAFREELKYFEAKIEKHNHYQKQLEIAHEKLRHAESVGDGERVSRSREKHALLEGRTKELGYTVKKHLQDLSGRISRAR
notes: forward mutant of wild-type RAP d3; also called RAP H249Y; not shown: vector-encoded N-terminal tags of pET30(+)a
Consider B5, for which, in the experiment with LRP1 CR3-5, the “% max (percent of maximum binding)” value was 90% and the equilibrium dissociation constant (Kd) is 28 nM. Moreover, in the experiment with LRP2 CR89 [1], the “% max (percent of maximum binding)” value stood at 2%. Further, the binding result in the experiment with LRP2 CR89 [2] is on record as “no binding (tested: 100 nM)”.

B6: RAP d3 K256A, K270E (ligand)
chain: LDRLRRVSHQGYSTEAEFEEPRVIDLWDLEQSANLTDKELEAFREELKHFEAKIEAHNHYQKQLEIAHEELRHAESVGDGERVSRSREKHALLEGRTKELGYTVKKHLQDLSGRISRAR
notes: forward mutant of wild-type RAP d3; also called RAP K256A, K270E; not shown: vector-encoded N-terminal tags of pET30(+)a
On to B6, for which the “% max (percent of maximum binding)” value with LRP1 CR3-5 came to 2%; with LRP2 CR89 [1] it was 3%. Moreover, the binding result with LRP2 CR89 [2] is listed as “no binding (tested: 100 nM)”.

B7: RAP d3 E251K (ligand)
chain: LDRLRRVSHQGYSTEAEFEEPRVIDLWDLEQSANLTDKELEAFREELKHFKAKIEKHNHYQKQLEIAHEKLRHAESVGDGERVSRSREKHALLEGRTKELGYTVKKHLQDLSGRISRAR
notes: forward mutant of wild-type RAP d3; also called RAP E251K; not shown: vector-encoded N-terminal tags of pET30(+)a
For the molecule B7, the “% max (percent of maximum binding)” value came out at 100% with LRP1 CR3-5 and 5% with LRP2 CR89 [1]. This molecule yielded a Kd with LRP1 CR3-5 of 7 nM. The binding result with LRP2 CR89 [2] was “no binding (tested: 100 nM)”.

B8: LRP6 CR12 (receptor, human, UniProt O75581 1247-1322, looked up)
chain: PTCSPQQFTCFTGEIDCIPVAWRCDGFTECEDHSDELNCPVCSESQFQCASGQCIDGALRCNGDANCQDKSDEKNC
notes: range 1247-1322; also called L6 CR12; not shown: N-terminal hexahistidine and S-peptide from pET30(+)a
In experiment [3], B8 displayed a dissociation constant Kd of over 1000 nM.

B9: LRP6 CR1-3 (receptor, human, UniProt O75581 1247-1363, looked up)
chain: PTCSPQQFTCFTGEIDCIPVAWRCDGFTECEDHSDELNCPVCSESQFQCASGQCIDGALRCNGDANCQDKSDEKNCEVLCLIDQFRCANGQCIGKHKKCDHNVDCSDKSDELDCYPT
notes: range 1247-1363; also called L6 CR1-3; not shown: N-terminal hexahistidine and S-peptide from pET30(+)a
Consider B9, for which, in experiment [3], the affinity, expressed as Kd, was 328 nM.

B10: VLDLR CR6-8 (receptor)
chain: not shown
notes: range 235-358; also called V CR6-8; not shown: N-terminal hexahistidine and S-peptide from pET30(+)a
With B10, in experiment [3], the Kd came to 170 nM.

On to B11, for which the Kd in experiment [3] was determined as 29 nM.
